Test results as given in paper PMC11963481, “The Vacuolar Inositol Transporter BvINT1;1 Contributes to Raffinose Biosynthesis and Reactive Oxygen Species Scavenging During Cold Stress in Sugar Beet” (Plant, Cell & Environment, 2025).

Tested on: T1, O[C@H]1[C@H](O)[C@@H](O)[C@H](O)[C@@H](O)[C@H]1O
T1 construct: full-length CDS with C-terminal dileucine motif mutated (LL489/490AA) for plasma membrane targeting; cRNA-injected Xenopus laevis oocytes
Experiment: two-electrode voltage clamp, inward currents in Xenopus oocytes, Michaelis-Menten fit
Assay type: cell-based, Beta vulgaris
Details: pH 5.5, room temperature, holding potential -20 mV, 96 mM NaCl bath, inositol/H+ symport, n = 7 oocytes

## BvINT1;1 LL489/490AA (INT1;1^PM, BvINT1;1^PM) (Beta vulgaris subsp. vulgaris; L489A/L490A)
  Km: 2300 ± 300 µM
